# Target: GST-labeled ROR1 (intracellular domain), recombinant, purified from Sf9 insect cells (UniProt Q01973)
# Sequence (Q01973 428-937): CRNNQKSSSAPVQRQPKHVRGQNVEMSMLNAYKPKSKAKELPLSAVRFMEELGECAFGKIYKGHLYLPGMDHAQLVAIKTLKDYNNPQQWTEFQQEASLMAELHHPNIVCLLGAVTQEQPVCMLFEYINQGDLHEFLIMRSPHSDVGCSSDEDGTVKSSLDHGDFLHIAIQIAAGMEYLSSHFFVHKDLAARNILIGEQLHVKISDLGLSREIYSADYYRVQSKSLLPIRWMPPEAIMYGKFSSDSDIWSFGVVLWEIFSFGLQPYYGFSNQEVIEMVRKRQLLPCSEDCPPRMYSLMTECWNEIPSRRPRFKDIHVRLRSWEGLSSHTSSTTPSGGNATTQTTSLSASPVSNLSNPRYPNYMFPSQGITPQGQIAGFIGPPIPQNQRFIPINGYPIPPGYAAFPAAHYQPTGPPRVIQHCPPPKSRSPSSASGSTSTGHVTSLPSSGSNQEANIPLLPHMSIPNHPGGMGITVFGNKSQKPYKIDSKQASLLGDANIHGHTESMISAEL
substance,measurement,value
"endogenous c-Src (NCI-H1975, 293T, NCI-H23 cells)","in vitro ROR1 kinase assay, western blot with anti-phospho-c-Src antibody (c-Src immunoprecipitated from NCI-H23 and 293T lysates as substrate)",c-Src was phosphorylated by ROR1

# Reference: patent publication US20130338214
